# Assay results as given in the RNAGym collection of RNA variant scans (doi:10.1073/pnas.2313332121).
# Variants at the floor of the assay were thinned out.
# B1: TPR 5TU (parent)
# chain: GGAUCUUCUCGAUCUAACAAAAAAGACAAAUCUGCCACAAAGCUUGAGAGCAUCUUCGGAUGCAGAGGCGGCAGCCUUCGGUGGCGCGAUAGCGCCAACGUUCUCAACUAUGACACGCAAAACGCGUGCUCCGUUGAAUGGAGUUUAUCAUG
# Variants of: B1
# Assay: polymerase ribozyme fitness, log enrichment relative to wild type (log ratio); higher = more active; in vitro selection for triplet polymerase activity
# How it was run: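 Frozen incubation at −7 °C formed the core of a single, triplicate in vitro selection round applied to PCR-built, transcribed mutant libraries of each subunit of a heterodimeric triplet polymerase ribozyme. Extended constructs were gel-excised, captured with streptavidin beads and amplified by RT-PCR, and input and output libraries were Illumina-sequenced with a filter of ≥10 input reads and ≥1 read per output. Fitness is the logarithm of genotype enrichment relative to wild-type enrichment, with inverse-variance-weighted replicate averaging, and the logarithm is base 2.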
row,Variant,polymerase ribozyme fitness (log ratio)
1,GGAUCUUCUCGAUCUAACAAAAAAGACAAAUCUGCCGCAAAGCUUGAGAGCAUUAUCGGAUGCAGAGGCGGCAGCCUUCGGUGGCACGUUAGCGCCAACGUUCUCAACGAUGACACGCAAAACGCGUGCUCCGUUGAGUGGAGUUUAUCAUG [A37G C54U U55A G86A A89U U109G A138G],≤ -4.2
2,GGAUCUUCUCGAUCUAACAAAAAAGACAAAUCUGCCGCAAAGCUUGAGAGCAUCUUCGGAUGCAGAGGCGGCAGCCUUCGGUGACGCGAUAGCGCCAACGGUCUCAACUAUGACACGCAGAACGCGUGCUCCGUUGAAUGGAGUUUAUCAUG [A37G G84A U101G A120G],-2.6
3,GGAUCUUCUCGAUCUAACAAAAAAGACAAAUCUGCCGCUAAGCUUGAGAACAUCUUCGGAUGCAGAGGCGGCAGCCUUCGGUGGCGCGAUAGCGCCAACGUUCUCAACUAUGACACGCAAAACGCGUGCUCCGUUGAAUGGUGUUUAUCAUG [A37G A39U G50A A142U],≤ -4.2
4,GGAUCUUCUCGAUCUAACAAAAAAGACAAAUCUGCCGCAAAGCUUGAGAGCAUCUUCAGAUGCAGAGGCGGCAGCCUUCGGUGGCGCGAUACCGCCAACGUUCUCAACUAUGACACGCAAAACGCGUGCUCCGUUGAAUUGAGUUUAUCAUG [A37G G58A G92C G140U],≤ -4.2
5,GGAUCUUCUCGAUCUAACAAAAAAGACAAAUCUGCCGCAAAGCUUGAGAGCAUCUUCGGCUGCAGAGGCGGCAGCCUUCGGUGGCGCGAUAGCGCCAACGUUCUCAACUAUGACACGCAAAACGCGUGCUCCGUUGAAUGGAGUUUAUCAUG [A37G A60C],-3.15
6,GGAUCUUCUCGAUCUAACAAAAAAGACAAAUCUGCCGCAUAGCUUGAGAGCAUGUUCGGGUGCAGAGGCGGCAGCCUUCGGUGGCGCGAUAGCGCCAACGUUCUCAACUAUGACACGCAAAACGCGUGCUCCGUUGAAUGGAGUUUAUCAUG [A37G A40U C54G A60G],-2.66
7,GGAUCUUCUCGAUCUAACAAAAAAGACAAAUCUGCCGCAAAGCUUGAGAGCAUCUUCGGAUGCAGAGGCGGCAGCCUUCGGUGGCGCGAUAGCGCAAACGUACUCAACUAUGACACGCAAAACGCGUGCUUCGUUUAAUGGAGUUUAUCAUG [A37G C96A U102A C131U G136U],≤ -4.2
8,GGAUCUUCUCGAUCUAACAAAAAAGACAAAUCUGCCGCAAAGCUUGCGAGCAUCUUCGGAUGCAGAGGCGGCAGCCUUCGGUGGCGCGAUAGCGCCAACUUUCUCAACUAUGACACGCAAAACGCGUGCUCCGUUGAAUGGAAUUUAUCAUG [A37G A47C G100U G143A],≤ -4.2
9,GGAUCUUCUCGAUCUAACAAAAAAGACAAAUCUGCCGCAAAGCUUGAGAGUAUCUUCGGAUGCAGUGGCGGCAGCCUUCGGUAGCGCGAUAGCGCCAACGUUCUCAACUAUGACACGCAAAACGCGUGCUCCGUUGAAUGGAGUUUAUCAGG [A37G C51U A66U G83A U151G],≤ -4.2
10,GGAUCUUCUCGAUCUAACAAAAAAGACAAAUCUGCCGCAACGCUUGAGAGCAUCUUCGGAUGCAGAGGCGACAGCCUUCGGUGGCGCGAAAGCGCUAACGUUCUCAACUAUGACACGCAAAACGCGUGCUCCGUUGAAUGGAGUUUAUCAUG [A37G A41C G71A U90A C96U],≤ -4.2
11,GGAUCUUCUCGAUCUAACAAAAAAGACAAAUCUGCCGCAAAGCUUGAGAGCAUCUUCGGAUGCAGAGGCGGCAUCCUUCGGUGGCGGGAUAGCGCCAACGUUCUCAACUAUGACCCGCAAAACGCGUGCUCCGUUGAAUGGAGUUUAUCAUG [A37G G74U C87G A115C],≤ -4.2
12,GGAUCUUCUCGAUCUAACAAAAAAGACAAAUCUGCCGCAAAGCUUGAGAGCAUCUUCGGAUGCAGAGGCGGCAGCCUUCGGUUACGCGAUAGCGCCAACGUUCUCAACUAUGACACGCAAAACGCGUGCUCCGUUGAAUGGGGUUUAUCAUG [A37G G83U G84A A142G],≤ -4.2
13,GGAUCUUCUCGAUCUAACAAAAAAGACAAAUCUGCCGCAAAGCUUGAGAGCAUCUUCGGAUGCAGUGGCGGCAGCCUUCGGUGGCGCGAUAGCGCAAACGUUUUCAACUAUGACACGCAAAACGCGUGCUCCGUUGAAUGGAGUUUAUCAUG [A37G A66U C96A C103U],≤ -4.2
14,GGAUCUUCUCGAUCUAACAAAAAAGACAAAUCUGCCGCAAAGCUUGAGAGCAUCUUCGGAUGCAGAGGCGGCUGCCUUCGGUGGCGCGAUAGCACCCACGUUCUCAACUAUGACACGCAAAACACGUGCUCCGUUGAAUGGAGUUUAUCAUG [A37G A73U G94A A97C G124A],≤ -4.2
15,GGAUCUUCUCGAUCUAACAAAAAAGACAAAUCUGCCGCAAAGCUUGAGAGCCUCUUCGGAUGCAGAGGCGGCAGCCUUCGGUGGCGCGAUAGCGUCACCGUUCUCAACUAUGACACGCAAAACGCGUGCUCCGUUGAAUGGAGUUUAUCAUG [A37G A52C C95U A98C],-3.46
16,GGAUCUUCUCGAUCUAACAAAAAAGACAAAUCUGCCGCAAAGCUUGAGAGCAUCUUCGGAUGCAGAGGCGGCAGCCUUCGGUGGCGCGAUAGCGUCAACGUUCUCAACUAUGACACGCAAAACGCGUGCUCCGUUGAAUGGAGUUUAUCAUG [A37G C95U],-2.43
17,GGAUCUUCUCGAUCUAACAAAAAAGACAAAUCUGCCGCAAAGCUUGAGAGCAUCUUCGGAUGCAGAGGCGGCAGCCUUCGGUGGCGCGAUAGCGCCGGCGUUCUCAACUAUGACACGCAAAACGCGUGCUCCGUUGAAUGGAGUUUAUCAUG [A37G A97G A98G],-2.55
18,GGAUCUUCUCGAUCUAACAAAAAAGACAAAUCUGCCGCAAAGCUUGAGAGCAUCUUCGGAUGCAGAGGCGGCAGCCUUCGGUGGCGCGAUAGAGCCAACGUUCUCAACUAUGACACGCAAAACGCGUGCUCCGUUGAAUGGAGUGUAUCAUG [A37G C93A U145G],-3.99
19,GGAUCUUCUCGAUCUAACAAAAAAGACAAAUCUGCCGAAAAGUUUGAGAGCAUGUUCGGAUGCAGAGGCGGCAGCCUUCUGUGGCGCGAUAGCGCCAACGUUCGCAACUAUGACACGCAAAACGCGUGCUCCGUUGAAUGGAGUUUAUCAUG [A37G C38A C43U C54G G80U U104G],≤ -4.2
